Key:
[1] = target: T1, human C-KIT-Fc (human, UniProt P10721 26-524); experiment: direct titration ELISA on coated C-KIT-Fc, IgG1 format
T1 construct: also called biotinylated human C-KIT-Fc; not shown: Fc part not described

[2] = target: T2, hICAM-1-Fc (human, UniProt P05362); experiment: direct ELISA on coated protein, IgG1
T2 construct: Fc fusion; member of the panel m9

[3] = target: T3, hCMET-Fc (The natural ectodomain is cleaved by furin after residue 307 into disulfide-linked alpha and beta chains. It is given here as one continuous stretch.); experiment: direct ELISA on coated protein, IgG1
T3 construct: member of the panel m9
T3 chain: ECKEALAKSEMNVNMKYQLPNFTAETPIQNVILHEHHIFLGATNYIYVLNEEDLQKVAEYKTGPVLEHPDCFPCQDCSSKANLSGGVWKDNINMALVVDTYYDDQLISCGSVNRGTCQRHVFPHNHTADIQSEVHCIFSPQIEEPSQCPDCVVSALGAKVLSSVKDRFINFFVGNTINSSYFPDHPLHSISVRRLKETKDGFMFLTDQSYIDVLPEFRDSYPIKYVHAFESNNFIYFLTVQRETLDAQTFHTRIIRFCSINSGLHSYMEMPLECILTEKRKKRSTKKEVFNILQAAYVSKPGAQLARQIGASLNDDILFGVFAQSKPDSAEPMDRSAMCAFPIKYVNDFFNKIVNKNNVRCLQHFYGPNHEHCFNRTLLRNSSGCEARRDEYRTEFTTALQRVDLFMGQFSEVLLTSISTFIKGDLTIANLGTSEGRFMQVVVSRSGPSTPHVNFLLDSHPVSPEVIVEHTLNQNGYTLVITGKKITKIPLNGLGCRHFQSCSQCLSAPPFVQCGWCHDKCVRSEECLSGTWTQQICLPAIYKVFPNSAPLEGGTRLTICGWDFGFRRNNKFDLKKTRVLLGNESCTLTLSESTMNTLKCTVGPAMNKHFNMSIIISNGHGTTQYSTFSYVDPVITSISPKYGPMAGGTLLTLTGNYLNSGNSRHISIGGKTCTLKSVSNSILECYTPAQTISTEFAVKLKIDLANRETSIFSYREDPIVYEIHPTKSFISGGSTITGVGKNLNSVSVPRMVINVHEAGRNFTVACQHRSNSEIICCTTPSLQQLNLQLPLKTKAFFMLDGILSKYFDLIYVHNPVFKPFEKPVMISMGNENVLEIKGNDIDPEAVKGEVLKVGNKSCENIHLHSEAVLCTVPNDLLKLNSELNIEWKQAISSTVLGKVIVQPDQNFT

[4] = target: T4, hBAFFR-Fc (human, UniProt Q96RJ3); experiment: direct ELISA on coated protein, IgG1
T4 construct: Fc fusion; member of the panel m9
T4 sequence (Q96RJ3 7-71 limits assumed): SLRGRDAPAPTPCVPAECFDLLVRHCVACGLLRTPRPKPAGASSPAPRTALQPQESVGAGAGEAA

[5] = target: T5, hTWEAK-Fc (human, UniProt O43508); experiment: direct ELISA on coated protein, IgG1
T5 construct: Fc fusion; member of the panel m9
T5 sequence (looked up): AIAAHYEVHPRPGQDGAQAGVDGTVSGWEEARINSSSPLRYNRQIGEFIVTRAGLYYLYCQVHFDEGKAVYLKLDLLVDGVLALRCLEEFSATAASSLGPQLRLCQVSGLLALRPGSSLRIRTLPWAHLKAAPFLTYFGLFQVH

[6] = target: T6, hCD4 (human, UniProt P01730); experiment: direct ELISA on coated protein, IgG1
T6 construct: purified recombinant protein; member of the panel m9

[7] = target: T7, h4-1BB-Fc; experiment: direct ELISA on coated protein, IgG1
T7 construct: member of the panel m9
T7 sequence (chain, as listed by the source limits assumed): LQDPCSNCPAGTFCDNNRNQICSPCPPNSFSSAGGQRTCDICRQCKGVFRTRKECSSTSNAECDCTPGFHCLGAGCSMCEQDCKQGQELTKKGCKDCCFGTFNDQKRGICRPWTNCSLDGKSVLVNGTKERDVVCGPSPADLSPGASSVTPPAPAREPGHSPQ

[8] = target: T8, hOX40-Fc; experiment: direct ELISA on coated protein, IgG1
T8 construct: member of the panel m9
T8 chain: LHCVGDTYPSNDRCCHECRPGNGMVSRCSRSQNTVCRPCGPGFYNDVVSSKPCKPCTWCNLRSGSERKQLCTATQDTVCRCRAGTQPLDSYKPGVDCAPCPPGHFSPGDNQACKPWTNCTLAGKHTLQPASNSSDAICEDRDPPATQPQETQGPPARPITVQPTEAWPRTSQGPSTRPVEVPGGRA

[9] = target: T9, hVCAM-1 (human, UniProt P19320); experiment: direct ELISA on coated protein, IgG1
T9 construct: purified recombinant protein; member of the panel m9
T9 sequence (looked up): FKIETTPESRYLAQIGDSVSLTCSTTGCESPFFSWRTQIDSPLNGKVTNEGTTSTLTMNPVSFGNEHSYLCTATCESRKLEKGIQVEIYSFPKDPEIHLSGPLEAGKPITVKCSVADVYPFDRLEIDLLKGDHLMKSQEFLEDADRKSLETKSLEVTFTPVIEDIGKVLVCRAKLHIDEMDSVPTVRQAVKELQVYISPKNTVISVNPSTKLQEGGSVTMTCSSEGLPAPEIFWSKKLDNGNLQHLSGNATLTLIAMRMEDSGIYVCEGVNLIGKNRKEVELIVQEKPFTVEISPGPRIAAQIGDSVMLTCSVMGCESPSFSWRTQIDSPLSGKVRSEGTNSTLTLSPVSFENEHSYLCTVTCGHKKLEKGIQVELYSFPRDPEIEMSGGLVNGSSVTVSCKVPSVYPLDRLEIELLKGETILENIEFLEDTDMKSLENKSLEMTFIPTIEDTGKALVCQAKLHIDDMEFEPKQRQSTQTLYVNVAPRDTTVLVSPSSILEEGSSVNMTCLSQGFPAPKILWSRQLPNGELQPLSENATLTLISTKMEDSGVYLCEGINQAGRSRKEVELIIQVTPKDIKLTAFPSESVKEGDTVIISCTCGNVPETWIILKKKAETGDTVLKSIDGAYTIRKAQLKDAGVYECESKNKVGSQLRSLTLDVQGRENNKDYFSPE

[10] = target: T10, hVCAM-Fc; experiment: direct ELISA on coated protein, IgG1
T10 construct: member of the panel m9
T10 chain: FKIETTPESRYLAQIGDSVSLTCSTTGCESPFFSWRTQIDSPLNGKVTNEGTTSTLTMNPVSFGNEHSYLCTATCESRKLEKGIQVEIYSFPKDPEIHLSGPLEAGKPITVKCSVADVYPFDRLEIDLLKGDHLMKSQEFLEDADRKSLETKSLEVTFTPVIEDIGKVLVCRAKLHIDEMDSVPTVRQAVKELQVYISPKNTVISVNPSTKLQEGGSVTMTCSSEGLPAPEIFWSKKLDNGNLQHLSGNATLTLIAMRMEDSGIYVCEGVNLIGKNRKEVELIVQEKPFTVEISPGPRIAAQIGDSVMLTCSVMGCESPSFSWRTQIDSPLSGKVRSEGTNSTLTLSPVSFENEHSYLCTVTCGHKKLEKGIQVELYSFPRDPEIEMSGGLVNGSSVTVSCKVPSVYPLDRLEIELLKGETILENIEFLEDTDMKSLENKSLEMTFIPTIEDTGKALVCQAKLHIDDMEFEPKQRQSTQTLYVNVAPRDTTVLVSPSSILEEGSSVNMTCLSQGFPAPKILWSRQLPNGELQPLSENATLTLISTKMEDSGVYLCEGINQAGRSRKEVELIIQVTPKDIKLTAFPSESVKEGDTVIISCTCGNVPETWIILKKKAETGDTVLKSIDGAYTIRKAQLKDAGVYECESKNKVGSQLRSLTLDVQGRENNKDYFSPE

[11] = target: T11, hDR6-Fc (human, UniProt O75509); experiment: direct ELISA on coated protein, IgG1
T11 construct: Fc fusion; member of the panel m9
T11 sequence (looked up): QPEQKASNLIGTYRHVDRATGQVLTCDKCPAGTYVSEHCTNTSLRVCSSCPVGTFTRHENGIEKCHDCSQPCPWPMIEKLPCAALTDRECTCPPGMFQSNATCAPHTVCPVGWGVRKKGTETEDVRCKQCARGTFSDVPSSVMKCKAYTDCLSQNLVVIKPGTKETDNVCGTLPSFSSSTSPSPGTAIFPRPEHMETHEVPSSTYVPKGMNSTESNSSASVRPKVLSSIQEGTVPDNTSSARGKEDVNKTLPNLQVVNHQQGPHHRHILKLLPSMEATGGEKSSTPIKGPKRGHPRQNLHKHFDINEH

[12] = target: T12, hLTBR-Fc (human, UniProt P36941); experiment: direct ELISA on coated protein, IgG1
T12 construct: Fc fusion; member of the panel m9
T12 sequence (P36941 28-227 limits assumed): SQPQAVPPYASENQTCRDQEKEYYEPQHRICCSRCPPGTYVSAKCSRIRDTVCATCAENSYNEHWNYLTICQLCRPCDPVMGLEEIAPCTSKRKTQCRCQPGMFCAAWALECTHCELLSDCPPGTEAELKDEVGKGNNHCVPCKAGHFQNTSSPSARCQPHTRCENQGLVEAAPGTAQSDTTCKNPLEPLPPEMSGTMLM

[13] = target: T13, hDR3-Fc (human, UniProt Q93038); experiment: direct ELISA on coated protein, IgG1
T13 construct: Fc fusion; member of the panel m9
T13 sequence (looked up): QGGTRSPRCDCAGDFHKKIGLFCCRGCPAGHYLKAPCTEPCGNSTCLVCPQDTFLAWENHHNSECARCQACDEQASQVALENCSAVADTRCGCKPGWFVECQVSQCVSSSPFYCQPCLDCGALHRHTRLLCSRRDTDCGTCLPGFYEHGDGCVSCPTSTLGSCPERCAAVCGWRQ

[14] = target: T14, hEpCAM-Fc (human, UniProt P16422); experiment: direct ELISA on coated protein, IgG1
T14 construct: Fc fusion; member of the panel m9
T14 sequence (looked up): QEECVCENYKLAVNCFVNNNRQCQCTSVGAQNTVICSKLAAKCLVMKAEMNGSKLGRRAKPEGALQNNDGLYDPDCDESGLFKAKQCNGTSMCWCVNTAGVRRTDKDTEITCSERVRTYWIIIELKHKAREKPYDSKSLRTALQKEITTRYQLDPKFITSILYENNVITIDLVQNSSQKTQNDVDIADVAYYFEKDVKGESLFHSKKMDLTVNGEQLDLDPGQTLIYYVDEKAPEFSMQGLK

[15] = target: T1, human C-KIT-Fc; experiment: direct ELISA at 1 µg/ml
[16] = target: T15, cynomolgus monkey C-KIT-Fc (cynomolgus monkey); experiment: direct ELISA at 1 µg/ml
T15 construct: also called cyno C-KIT-Fc

T2 sequence (P05362 28-480 limits assumed): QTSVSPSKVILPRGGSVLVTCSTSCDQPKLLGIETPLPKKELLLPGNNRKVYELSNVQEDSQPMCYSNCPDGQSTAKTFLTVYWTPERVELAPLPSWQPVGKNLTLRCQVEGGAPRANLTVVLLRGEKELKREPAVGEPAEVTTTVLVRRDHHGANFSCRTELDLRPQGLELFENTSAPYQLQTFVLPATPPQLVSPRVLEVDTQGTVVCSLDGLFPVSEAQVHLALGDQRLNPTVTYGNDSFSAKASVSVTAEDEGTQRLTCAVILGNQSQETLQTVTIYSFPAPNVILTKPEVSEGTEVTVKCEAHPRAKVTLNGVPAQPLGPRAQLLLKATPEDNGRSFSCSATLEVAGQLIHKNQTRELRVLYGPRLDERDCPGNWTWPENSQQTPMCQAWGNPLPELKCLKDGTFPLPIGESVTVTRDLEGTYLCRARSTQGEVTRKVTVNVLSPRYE

B1: E-C2 (antibody, IgG1, V domains shown)
VH: QVQLVQSGAEVKKPGASVKVSCKASGYTFTDYYMNWVRQAPGQGLEWMGRIYPGSGNTYYAQKFQGRVTMTRDTSTSTVYMELSSLRSEDTAVYYCARGVYYLDYWGQGTLVTVSS
VL: DIQMTQSPSSLSASVGDRVTITCRASQGIRTNVAWLQQKPGKAPKSLIYSASYRQSGVPSRFSGSGSGTDFTLTISSLQPEDFATYYCQQYNSYPRTFGGGTKVEIK
notes: IgG1; also called C-KIT-E-C2
EC50 (read off the curve) [1]: ~0.1 µg/mL
binding result [2]: no binding (tested: 1 µg/ml)
binding result [3]: no binding (tested: 1 µg/ml)
binding result [4]: no binding (tested: 1 µg/ml)
binding result [5]: no binding (tested: 1 µg/ml)
binding result [6]: no binding (tested: 1 µg/ml)
binding result [7]: no binding (tested: 1 µg/ml)
binding result [8]: no binding (tested: 1 µg/ml)
binding result [9]: no binding (tested: 1 µg/ml)
binding result [10]: no binding (tested: 1 µg/ml)
binding result [11]: no binding (tested: 1 µg/ml)
binding result [12]: no binding (tested: 1 µg/ml)
binding result [13]: no binding (tested: 1 µg/ml)
binding result [14]: no binding (tested: 1 µg/ml)
OD450 nm [15]: > 1.8 OD450 nm
OD450 nm [16]: > 2 OD450 nm
